From patent US20100098683A1 (Dana-Farber, published 2010)

Biological target: T1, GST-galectin-3 (human, UniProt P08515 1-218 = GST)
T1 construct: Full-length galectin-3 in pGEX4T1; also called GST-galectin-3 fusion protein; GST fusion with full-length galectin-3
Assay: GST-galectin-3 pull-down from BT549 lysates, anti-MUC1-C immunoblot
Method: Immunoblotting and precipitates. Lysates were prepared from subconfluent cells as described (Li et al., 2001).

T1 sequence (P08515 1-218, tags or fused parts left off): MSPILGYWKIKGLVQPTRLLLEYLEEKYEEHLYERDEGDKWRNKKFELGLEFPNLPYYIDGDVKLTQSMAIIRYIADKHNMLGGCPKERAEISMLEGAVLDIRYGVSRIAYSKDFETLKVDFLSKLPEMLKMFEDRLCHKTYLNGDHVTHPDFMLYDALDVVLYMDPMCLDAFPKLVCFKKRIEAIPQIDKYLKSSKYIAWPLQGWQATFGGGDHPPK

B1: MUC1-C(N36A) (receptor)
chain: SVVVQLTLAFREGTINVHDVETQFNQYKTEAASRYALTISDVSVSDVPFPFSAQSGAGVPGWGIALLVLVCVLVALAIVYLIALAVCQCRRKNYGQLDIFPARDTYHPMSEYPTYHTHGRYVPPSSTDRSPYEKVSAGNGGSSLSYTNPAVAATSANL
notes: Stably expressed in BT549 cells and tested in lysates; lacks the glycosylated 25-20 kDa species; also called MUC1-C with a N36A mutation
binding result: no binding
